Assay results reported in the supplement of paper PMC9112550, “Optimization of the antimicrobial peptide Bac7 by deep mutational scanning” (BMC Biology, 2022).

tested on: Escherichia coli TOP10; experiment: shrunken log2 fold change of peptide-encoding DNA abundance (4.5 h post-induction vs induction); higher = less antimicrobial activity (less host growth inhibition); details: time post-induction: 4.5 h; library: site-saturation at positions 5, 18, 19, 20
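Further: peptides expressed intracellularly from a pBAD plasmid library in pooled LB shake-flask culture, induced with 0.3% L-arabinose, DNA abundance read by NGS, three biological replicates, DESeq2 with apeglm shrinkage.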

Sequence	shrunken log2 fold change
RRIRQRPPRLPRPRPRPYFMPRP	-0.89
RRIRRRPPRLPRPRPRPTVFPRP	0.721
RRIRHRPPRLPRPRPRPQRDPRP	0.000147
RRIRGRPPRLPRPRPRPFMAPRP	0.211
RRIRLRPPRLPRPRPRPFFYPRP	-0.343
RRIRMRPPRLPRPRPRPQMWPRP	0.635
RRIRNRPPRLPRPRPRPGEGPRP	0.196
RRIRVRPPRLPRPRPRPRYEPRP	-0.273
RRIRWRPPRLPRPRPRPHMMPRP	-0.349
RRIRCRPPRLPRPRPRPANEPRP	0.0681
RRIRRRPPRLPRPRPRPPNMPRP	0.402
RRIRKRPPRLPRPRPRPMWAPRP	0.184
RRIRERPPRLPRPRPRPKDVPRP	-0.152
RRIRARPPRLPRPRPRPFYIPRP	-0.309
RRIRRRPPRLPRPRPRPLYVPRP	-0.379
RRIRRRPPRLPRPRPRPIDQPRP	0.696
RRIRQRPPRLPRPRPRPLSDPRP	-0.0651
RRIRQRPPRLPRPRPRPGRHPRP	0.0349
RRIRPRPPRLPRPRPRPYKFPRP	-0.178
RRIRERPPRLPRPRPRPSNHPRP	-0.91
RRIRKRPPRLPRPRPRPTKQPRP	-0.0553
RRIRARPPRLPRPRPRPNAWPRP	0.44
RRIRTRPPRLPRPRPRPNQKPRP	-0.306
RRIRERPPRLPRPRPRPQPGPRP	0.0699
RRIRWRPPRLPRPRPRPLFIPRP	-0.353

Sequence	shrunken log2 fold change
RRIRMRPPRLPRPRPRPDNCPRP	0.00157
RRIRMRPPRLPRPRPRPGLGPRP	0.914
RRIRWRPPRLPRPRPRPAMVPRP	0.483
RRIRNRPPRLPRPRPRPREHPRP	0.0287
RRIRERPPRLPRPRPRPSINPRP	-0.798
RRIRVRPPRLPRPRPRPRCFPRP	0.05
RRIRVRPPRLPRPRPRPHCPPRP	-0.173
RRIRRRPPRLPRPRPRPLHHPRP	0.31
RRIRFRPPRLPRPRPRPKIHPRP	-0.557
RRIRNRPPRLPRPRPRPSWQPRP	-0.0148
RRIRMRPPRLPRPRPRPDKNPRP	0.373
RRIRERPPRLPRPRPRPGCEPRP	-0.00695
RRIRGRPPRLPRPRPRPINHPRP	-0.0462
RRIRGRPPRLPRPRPRPPFHPRP	0.24
RRIRPRPPRLPRPRPRPIDMPRP	-0.0916
RRIRMRPPRLPRPRPRPYWGPRP	-0.0296
RRIRIRPPRLPRPRPRPDEQPRP	0.0601
RRIRPRPPRLPRPRPRPLLPPRP	-0.0532
RRIRNRPPRLPRPRPRPLFSPRP	-0.753
RRIRMRPPRLPRPRPRPQEVPRP	0.126
RRIRNRPPRLPRPRPRPNTMPRP	0.402
RRIRFRPPRLPRPRPRPMPEPRP	-0.0117
RRIRFRPPRLPRPRPRPTYRPRP	-8.67e-05
RRIRFRPPRLPRPRPRPSFQPRP	-0.145
RRIRSRPPRLPRPRPRPPYHPRP	-0.584

Sequence	shrunken log2 fold change
RRIRARPPRLPRPRPRPCWYPRP	-0.16
RRIRPRPPRLPRPRPRPVRTPRP	0.385
RRIRCRPPRLPRPRPRPTGYPRP	-0.0363
RRIRDRPPRLPRPRPRPFGYPRP	-0.342
RRIRCRPPRLPRPRPRPCSCPRP	-1.33
RRIRCRPPRLPRPRPRPIVHPRP	-0.7
RRIRNRPPRLPRPRPRPHMQPRP	-0.304
RRIRRRPPRLPRPRPRPPIGPRP	-0.149
RRIRGRPPRLPRPRPRPRFVPRP	0.467
RRIRRRPPRLPRPRPRPEMSPRP	0.0923
RRIRERPPRLPRPRPRPSYDPRP	-0.301
RRIRARPPRLPRPRPRPLLVPRP	0.284
RRIRVRPPRLPRPRPRPLKEPRP	0.0279
RRIRPRPPRLPRPRPRPCSQPRP	-0.257
RRIRLRPPRLPRPRPRPAHSPRP	0.0693
RRIRHRPPRLPRPRPRPVNCPRP	0.00367
RRIRWRPPRLPRPRPRPTKQPRP	0.0132
RRIRQRPPRLPRPRPRPPGSPRP	0.111
RRIRMRPPRLPRPRPRPHQIPRP	-0.00201
RRIRERPPRLPRPRPRPNMTPRP	-0.276
RRIRRRPPRLPRPRPRPCLKPRP	-0.184
RRIRHRPPRLPRPRPRPEMKPRP	-0.0143
RRIRYRPPRLPRPRPRPTIKPRP	-0.151
RRIRNRPPRLPRPRPRPLSYPRP	-0.319
RRIRNRPPRLPRPRPRPEPHPRP	0.131
